Measurements reported in IntAct's records for PubMed 7486703.

B1: Proto-oncogene tyrosine-protein kinase LCK (Mus musculus), P06240 (parent)
chain: MGCVCSSNPEDDWMENIDVCENCHYPIVPLDSKISLPIRNGSEVRDPLVTYEGSLPPASPLQDNLVIALHSYEPSHDGDLGFEKGEQLRILEQSGEWWKAQSLTTGQEGFIPFNFVAKANSLEPEPWFFKNLSRKDAERQLLAPGNTHGSFLIRESESTAGSFSLSVRDFDQNQGEVVKHYKIRNLDNGGFYISPRITFPGLHDLVRHYTNASDGLCTKLSRPCQTQKPQKPWWEDEWEVPRETLKLVERLGAGQFGEVWMGYYNGHTKVAVKSLKQGSMSPDAFLAEANLMKQLQHPRLVRLYAVVTQEPIYIITEYMENGSLVDFLKTPSGIKLNVNKLLDMAAQIAEGMAFIEEQNYIHRDLRAANILVSDTLSCKIADFGLARLIEDNEYTAREGAKFPIKWTAPEAINYGTFTIKSDVWSFGILLTEIVTHGRIPYPGMTNPEVIQNLERGYRMVRPDNCPEELYHLMMLCWKERPEDRPTFDYLRSVLDDFFTATEGQYQPQP

Variants of: B1
Details: with cd4_mouse Cd4, P06332
cd4_mouse Cd4, P06332, sequence (P06332 whole entry): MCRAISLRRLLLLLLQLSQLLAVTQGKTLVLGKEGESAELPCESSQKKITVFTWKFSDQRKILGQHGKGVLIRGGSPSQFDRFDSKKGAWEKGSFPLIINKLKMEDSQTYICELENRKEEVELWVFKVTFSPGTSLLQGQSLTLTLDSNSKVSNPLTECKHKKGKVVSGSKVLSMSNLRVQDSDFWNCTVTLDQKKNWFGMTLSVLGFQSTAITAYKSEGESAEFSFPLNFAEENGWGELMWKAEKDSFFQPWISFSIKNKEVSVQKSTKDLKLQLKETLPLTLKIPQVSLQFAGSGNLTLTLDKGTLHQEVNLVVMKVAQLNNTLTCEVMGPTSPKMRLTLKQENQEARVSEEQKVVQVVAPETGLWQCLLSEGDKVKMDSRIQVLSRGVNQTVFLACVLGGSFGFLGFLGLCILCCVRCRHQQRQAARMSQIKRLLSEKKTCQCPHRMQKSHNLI

| effect of a mutation on the interaction | Variant |
| --- | --- |
| decreasing interaction | C20A |
